Assay results from publication PMC6748103, “SPOP suppresses prostate cancer through regulation of CYCLIN E1 stability” (Cell Death and Differentiation, 2018).

Biological target: T1, GST-CCNE1 (UniProt P24864 1-410)
T1 construct: CYCLIN E1 (CCNE1), expressed in bacteria; also called GST-tagged CCEN1; GST-tagged CYCLIN E1
Experiment: pull-down; GST pull-down; His-SPOP and GST-CCNE1 expressed in bacteria and affinity purified
Conditions: both partners purified

T1 sequence (P24864 whole entry): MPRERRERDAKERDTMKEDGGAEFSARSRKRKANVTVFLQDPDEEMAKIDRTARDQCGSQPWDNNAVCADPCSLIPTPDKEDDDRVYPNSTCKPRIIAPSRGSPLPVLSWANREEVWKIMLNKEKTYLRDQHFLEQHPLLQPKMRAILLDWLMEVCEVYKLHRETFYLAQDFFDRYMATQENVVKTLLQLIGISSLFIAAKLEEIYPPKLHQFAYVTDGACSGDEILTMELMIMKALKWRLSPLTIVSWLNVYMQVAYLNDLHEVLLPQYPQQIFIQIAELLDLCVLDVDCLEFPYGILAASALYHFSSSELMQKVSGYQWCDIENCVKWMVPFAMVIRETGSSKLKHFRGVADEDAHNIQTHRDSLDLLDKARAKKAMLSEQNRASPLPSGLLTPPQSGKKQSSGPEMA

B1: His-tagged SPOP (natural protein, UniProt O43791 1-374, looked up)
chain: MSRVPSPPPPAEMSSGPVAESWCYTQIKVVKFSYMWTINNFSFCREEMGEVIKSSTFSSGANDKLKWCLRVNPKGLDEESKDYLSLYLLLVSCPKSEVRAKFKFSILNAKGEETKAMESQRAYRFVQGKDWGFKKFIRRDFLLDEANGLLPDDKLTLFCEVSVVQDSVNISGQNTMNMVKVPECRLADELGGLWENSRFTDCCLCVAGQEFQAHKAILAARSPVFSAMFEHEMEESKKNRVEINDVEPEVFKEMMCFIYTGKAPNLDKMADDLLAAADKYALERLKVMCEDALCSNLSVENAAEILILADLHSADQLKTQAVDFINYHASDVLETSGWKSMVVSHPHLVAEAYRSLASAQCPFLGPPRKRLKQS
notes: SPOP, expressed in bacteria; also called His-SPOP
B1: binds.
